Assay results taken from US20030096747A1.

Target: VEGFR-1 expressed in rat cavernous smooth muscle cells (CSMC) (rat) (UniProt P53767)
Test: cell-based or functional assay

Chain of VEGFR-1 expressed in rat cavernous smooth muscle cells (CSMC) (rat) (P53767 23-1336): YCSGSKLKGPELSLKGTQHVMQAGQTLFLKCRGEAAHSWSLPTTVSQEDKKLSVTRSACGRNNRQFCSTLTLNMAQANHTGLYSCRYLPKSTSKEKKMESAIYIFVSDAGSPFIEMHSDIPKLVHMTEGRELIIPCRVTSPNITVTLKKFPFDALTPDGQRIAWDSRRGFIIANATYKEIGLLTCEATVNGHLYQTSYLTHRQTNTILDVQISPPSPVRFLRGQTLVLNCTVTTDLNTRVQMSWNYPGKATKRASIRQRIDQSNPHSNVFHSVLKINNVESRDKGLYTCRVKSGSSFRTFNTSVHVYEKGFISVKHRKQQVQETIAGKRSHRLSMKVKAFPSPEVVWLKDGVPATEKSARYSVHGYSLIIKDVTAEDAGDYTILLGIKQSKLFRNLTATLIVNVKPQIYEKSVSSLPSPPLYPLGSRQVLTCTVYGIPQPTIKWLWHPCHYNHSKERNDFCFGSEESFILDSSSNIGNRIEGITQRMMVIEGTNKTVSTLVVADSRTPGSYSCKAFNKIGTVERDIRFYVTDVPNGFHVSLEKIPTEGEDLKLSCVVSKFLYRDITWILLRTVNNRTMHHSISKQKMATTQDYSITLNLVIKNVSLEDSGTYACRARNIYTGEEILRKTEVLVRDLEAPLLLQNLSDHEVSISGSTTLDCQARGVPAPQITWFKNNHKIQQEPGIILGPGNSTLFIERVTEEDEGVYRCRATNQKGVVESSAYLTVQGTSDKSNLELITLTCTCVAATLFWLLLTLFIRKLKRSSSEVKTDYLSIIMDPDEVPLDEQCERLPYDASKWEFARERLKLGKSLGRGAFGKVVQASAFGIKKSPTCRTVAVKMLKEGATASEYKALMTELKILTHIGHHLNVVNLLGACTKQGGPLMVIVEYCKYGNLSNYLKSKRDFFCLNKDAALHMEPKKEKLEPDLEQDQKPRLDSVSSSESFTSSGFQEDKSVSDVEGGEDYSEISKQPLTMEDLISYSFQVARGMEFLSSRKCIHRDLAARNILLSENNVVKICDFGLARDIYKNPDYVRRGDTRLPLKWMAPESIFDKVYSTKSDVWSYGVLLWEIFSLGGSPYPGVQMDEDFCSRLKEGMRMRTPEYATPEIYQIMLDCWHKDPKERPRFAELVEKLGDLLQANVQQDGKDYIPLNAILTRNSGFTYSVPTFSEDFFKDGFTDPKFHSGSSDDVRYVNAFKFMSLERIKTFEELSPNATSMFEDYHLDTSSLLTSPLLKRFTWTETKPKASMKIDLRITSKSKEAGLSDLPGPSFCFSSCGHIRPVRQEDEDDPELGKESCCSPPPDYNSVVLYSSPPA

migration of rat CSMC (Transwell, 4 hr); optimal VEGF concentration: 10 ng/mL
proliferation of rat CSMC (CellTiter-96, OD490nm, 3 days); optimal VEGF concentration: 12.5 ng/mL
Substance: Recombinant human VEGF165 (from UniProt P15692 27-191) (ligand)
